Measurements published in the DeepSol protein solubility set.

assay: soluble on expression in E. coli; label from the status in PepcDB or PDB records

Sequence | soluble on expression in E. coli
MGSDKIHHHHHHKGHRVTGSDANVYPPMSTQLEEQGIELIQGFDPSQLGDAGSYPDIVVIGNAMSRGNPCVEAVLNLGIPYTSGPQFLVDHILPERWVLAVSGTHGKTSTSSMLAWILEDCGYQPGFLIGGVPQNFGVSARLGESAFFVVEADEYDSAFFDKRSKFVHYHPRTLVINNLEFDHADIFADLAAIQKQFHHQIRTVPGQGKVIWPADSHAVKQTIDMGCWSEQETYHSSEVTKGWHAKALSDDCHEFEVFFDGQSQGVLDWALIGQHNIENAVMAIAAARHVGVAPSAAIDALARFVPPKRRLELLDTVNGVSVYDDFAHHPTAIATTIKGMRAKVGQTKITIVLEPRSNTMKSGVHKDTLAHSMLQADEAFLYQADTIDWNMKEAMEAAVIPVTVLHQIDDVVAKVAASAKPGDTIVVMSNGGFGGLHKKLLAALAVSPQLVEQAH | not soluble
MSLEGHIVITGATGVIGSEVARRLIKSGREVVVFARSPQSAAAKVPGAADYVRWDSDMAPDGWSSSIDGAYAVIHLAGRPLLETRWTEEHKVACYDSRIKGTRALVAAMASASVKPKVFVSSSAIGYYGSFDRCEETDPLTEKAAPGKDFLAKICFDWEKEARPAETLGTRVVLLRTGIVLSTKGGMLQKMMIPFSYFVGGPVGSGDQCLSWIHLDDEVSIILQALDNADWSGPVNAVAPEPVSMKAFADSLGLVMHRPSLFPVPKLAVQILLGEGADYAVKGQKVSPEFLKERDFHFAWPSLNEALADLVSRGEGHHHHHH | soluble
MLFERIYEEGLAQASYFIGCQREGKAIVVDARRDIQTYLDLAAKNNMVISAVTETHIHADYLSGTRELAAATGAEIFLSGEGGADWQYGFTGTTLMHNSTIKLGNITITAKHTPGHTPEHLSFLITDGAVSKDPGFMLSGDFVFVGDVGRPDLLDEAAGGVDTRFAGAQQLFHSLKEQFLALPDHIQVYPGHGAGSPCGKALGAIPSTTVGYEKANAWWAPYLRSDDEAGFVEELLDGQPDAHAYFARMKKQNKQGPAVLSTLSPLVKLEAEEVVEKLGSEAVFVDTREQNQVHLGTVVGALNIPRGAKASNFAAWVIDPQKDAQDLIVLAPDANTAADFRDALLRVGIDTVRYFTNSIDGLPTFVPELISPAELAETNYDALIDIRAKSEFAAGSIPGAQQLSGGSAMWRLNELPAGGTLVTFCQSGARNTVVANALRRAGFTVIELEGSYAAWEKSAANPLEHHHHHH | soluble
MPLGSLFDKTYDEMHCNQKSWEMAERQLMEDAVNVALQKNNLTKDDIDLLLAGDLLNQNVTANYVARHLKIPFLCMFGACSTSMETVAVASALVDGGFAKRALAATSSHNATAERQFRYPTEYGGQKPDTATSTVTGSGAVVISQTPGDIQITSATVGKVSDLGITDPFDMGSAMAPAAADTIKQHFKDLNRTADDYDLILTGDLSGVGSPIVKDILKEDGYPVGTKHDDCGLLIYTPDQQVFAGGSGCACSAVVTYSHIFKQLREGKLNRVFVVATGALLSPTMIQQKETIPTIAHGVVFERAGGASLEHHHHHH | not soluble
MSLKKENSVEFKVSGRYALFSDPINRIGGEKFSYQVPTYQALKGILESVYWKPTLIWIIDEVRVMNLIKTQSQNIRPVNFSGTSKGTGTPLNTLSIYTYLTNVEYQVKAHFEWNYNRPNLEKDRNENKHYIVAKRMINRGGRRDVFLGTRECQAYVEPCKFGEGEGAYDHYGSLSFGLMFHGFDYPDETGEDKLTARLWSPVMNNGYIKFLRPDECTIKRELSSMKPKVFDENNFSGLEEFEEEGDIIELDSEGHHHHHH | soluble
MGYTLADKIWRSHVVRSAEGEPDLVYIDMHLLHEVNTPAAFAGLRAAGRTVRRPDLTLGTEDHNTPTDDVLRMITDPGAVEQLDHIRRNCRDFGIELYSLGDSARGIVHVIGPELGLTQPGMTLVCCDSHTSTHGAFGVLAFGIGTSQVEHVLATQTLPMAPMQN | not soluble
MLTIERHEQIVKLVQEKEVVTIHDLVEYTNASESTIRRDLTELEKQKKLKRIHGGASVLKKRREEPTMAEKTVKNNHEKKKIAELAASFVEDGDCLFLDAGTTTYELIPFIKTKKIVVVTNGLDSISALLEAGVETYVIGGTVKQGTRAFVGRHAIQSLQTFRFDKAFLGINGVHLEDGFTTPDPQEAYVKETALSLSREAFMLVDHSKFGETTFATVAPIHAATIVTSSQVEQQVIQAYETQTAVKVVTLLEHHHHHH | soluble
ENSLIGLNDHTLVTEDDGRRWVTHEPALVYFHNKYWFNIIAMIRNDGVSYYCNLASPYVMDKEALKYIDYDLDIKVLTNGTKHLLDADEYIAHGQLWNYP | not soluble
